The source of these data is article PMC10009750, “Development of Selective ADAMTS-5 Peptide Substrates to Monitor Proteinase Activity” (Journal of Medicinal Chemistry, 2023).

The Km is the concentration of substrate that gives half-maximal velocity. The kcat is the number of substrate molecules converted per active site and unit of time at saturation. As usually defined, the kcat/Km is the second-order rate constant that governs catalysis at low substrate concentration.

Several values for one entry are separate records, joined by “and”; a condition that tells them apart may be missing. Identical values can stand only once. Non-standard residues stand in square brackets, D forms with d. No end group written: not given here. Tyr(3-NO2) = N[C@@H](Cc1ccc(O)c([N+](=O)[O-])c1)C(=O)O; 2Abz = Nc1ccccc1C(=O)O

Experiment [1] has as its target T1, TS5-5 (ADAMTS-5) (Homo sapiens, UniProt Q9UNA0).
T1 construct: ADAMTS-5 (i.e. TS5-5, residues 264–555); FLAG; made in house; host or cells: HEK293 cells (previously transfected stocks)
T1 sequence (Q9UNA0 264-555): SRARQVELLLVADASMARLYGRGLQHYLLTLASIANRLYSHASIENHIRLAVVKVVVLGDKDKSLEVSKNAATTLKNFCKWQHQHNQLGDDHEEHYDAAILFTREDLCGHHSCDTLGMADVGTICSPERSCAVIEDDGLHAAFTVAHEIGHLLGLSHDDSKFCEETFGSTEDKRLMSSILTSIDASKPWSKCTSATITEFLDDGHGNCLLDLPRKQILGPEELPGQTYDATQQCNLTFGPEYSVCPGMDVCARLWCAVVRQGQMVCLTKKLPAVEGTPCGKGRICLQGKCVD
The experiment can be described thus: Determination of kinetic parameters (kcat and Km) for substrate cleavage by TS5-5, inner-filter corrected. The experiment is classed as biochemical. On the procedure:
A solution of Abz-TESE↓SRGAIY-Dpa-KK-NH2/3/26 (5 mM) or 19/23 (1 mM) in DMSO underwent a 2-fold serial dilution with freshly prepared TNC buffer containing 0.005% (v/v) Brij-35. This gave initial concentrations in the following range: 222.22 to 0.87 μM (Abz-TESE↓SRGAIY-Dpa-KK-NH2/3/23/26) and 177.78 to 1.39 μM (19). Eight substrate concentrations (180 μL) within these ranges (including outer numbers) were added to a 96-well black microplate in triplicate and incubated at 37 °C (20 min). TNC buffer with 0.005% (v/v) Brij-35 was added to substrate-only control wells in a single replicate (180 μL). TS5-5 proteinase was thawed from −80 or −20 °C, made up in TNC buffer with 0.005% (v/v) Brij-35 (300 nM) and added to substrate wells (20 μL). TNC buffer was added to substrate-only control wells (20 μL). Fluorescence intensity was measured at 37 °C for 1 h with readings every 20 s. The rate of substrate cleavage was determined at each substrate concentration and expressed as the mean ± SEM in μM s^–1. The subsequent data was fitted to the Michaelis–Menten eq 2: [drawing 2] 2 where v is the rate of the reaction, Vmax is the maximal rate of the reaction, Km is the Michaelis constant, and [S] is the substrate concentration. This equation enabled the Km value to be determined. The catalytic rate constant kcat was determined from eq 3: [drawing 3] 3 where [E] is the concentration of proteinase, and kcat and Vmax are as defined previously. These initial Km and kcat parameters were determined from n = 3–4 independent experiments with final values for these parameters reported after a correction for the inner-filter effect.
This was performed based on the protocol described in Liu et al.([40]) to correct for quenching of the released Abz fluorophore by uncleaved substrate. Two sets of initial substrate concentrations were prepared as described in the previous section. Both sets of substrate concentrations (180 μL) were added to a 96-well black microplate in triplicate. Two buffer-alone controls with TNC buffer containing 0.005% (v/v) Brij-35 (180 μL) were also added in triplicate. All solutions were incubated at 37 °C (20 min). Abz fluorophore (1 M) in DMSO was serially diluted to 1 mM in DMSO, before further dilution to 100 μM using TNC buffer containing 0.005% (v/v) Brij-35. TNC buffer containing 0.005% (v/v) Brij-35 (20 μL) was added to the first set of substrate concentrations as well as to the first buffer-alone control. Abz fluorophore (20 μL, 100 μM) was added to the second set of substrate concentrations as well as the second buffer-alone control. The end-point fluorescence intensity was measured at 37 °C using λex = 300 nm and λem = 430 nm. At each substrate concentration, […] to give the actual fluorescence of the Abz fluorophore (RFUAbz). These values were divided by RFUAbz at a substrate concentration of 0 μM to give the correction factor for each concentration. The rates for each substrate concentration described in the previous section were divided by their respective correction factors (Tables S6–S10) to deliver the inner-filter corrected kcat and Km values.

For experiment [2], the target named is T1, TS5-5 (ADAMTS-5). The experiment can be described thus: Rate of cleavage of 3 and 26 by TS5-5 at different substrate concentrations. Conditions: TS5-5 57 nM, after 1 h, 37 °C. Format: biochemical. Here is the method: To test whether active TS5-5 had been purified, three concentrations of proteinase were assayed. […] A substrate-only background control was also added in triplicate (180 μL). The resultant solutions were incubated at 37 °C (30 min). […] TNC buffer with 0.02% (v/v) Brij-35 (20 μL) was also added to background control wells. The change in RFU was measured at 37 °C for 1 h, with readings every 20 s. Following subtraction of background fluorescence intensity, linear regression analysis of the linear part of each curve was used to determine the cleavage rate, which was expressed as the mean ± SEM in RFU s^–1. For cases where a single concentration of TS5-5 or TS4-4 was assayed, the same procedure was used but with 0.005% (v/v) Brij-35 and using the 5-FAM-AE↓LQGRPISIAK-TAMRA substrate for TS4-4 (0.56 μM). To convert cleavage rates to nM s^–1 nM^–1, the rate in RFU s^–1 was divided by the final concentration of proteinase (nM), then divided by the gradient of the calibration curve for Abz or 5-FAM (expressed in RFU nM^–1).
This was carried out according to the procedure described for activity studies of ADAMTSs with a single concentration of proteinase, except that a range of substrate concentrations was used for 3 and 26 (20 to 0.63 μM). Additionally, control wells for each substrate concentration were used in single replicate. The final concentration of TS5-5 was 57 nM.

The mark [3] stands for this setting: TS5-5, TNC buffer with 0.005% (v/v) Brij-35, 37 °C, corrected for inner filter effect, mean ± SEM from 3–4 independent experiments in triplicate.
[4] abbreviates: supplementary CSV copy of Table 3, TS5-5, 37 °C.
Setting [5] is: TS5-5, TNC buffer with 0.005% (v/v) Brij-35, 37 °C, corrected for inner filter effect, mean ± SEM from 3–4 independent experiments in triplicate, listed as current substrate.

“KY(NO2)TESESRGK(Abz)IYYKKG (K[Tyr(3-NO2)]TESESRGK(Abz)IYYKKG) [Compound 3]”: in experiment [1] (TS5-5), the “decrease in Km compared to the current substrate” value is around 4 fold, the “higher catalytic efficiency (kcat/Km) compared to the current substrate” value was around 2 fold and the “lower catalytic rate constant (kcat) compared to the current substrate” value is on record as around 2 fold. In experiment [1] (setting [3]), the Km is 29.5 ± 1.7 µM; the kcat was 1.87 s⁻¹ and 1.87 ± 0.15 s⁻¹; the kcat/Km was 63200 M⁻¹ s⁻¹ and 63200 ± 1840 M⁻¹ s⁻¹. Further, the kcat in experiment [1] (setting [4]) is 1.87 ± 0.15 s⁻¹. Also, the “lowest concentration of substrate detectibly cleaved by TS5-5 (ΔRFU ≥ 300)” value in experiment [2] came out at 2.5 µM.

Turning to “Abz-TESE↓SRGAIY-Dpa-KK-NH2 [current, ortho-aminobenzoyl(Abz)-TESE↓SRGAIY-N-3-[2,4-dinitrophenyl]-L-2,3-diaminopropionyl(Dpa)-KK-NH2, reference compound]”, in experiment [1] (setting [3]), the Km came to 125 ± 5 µM, the kcat is 3.61 ± 0.31 s⁻¹ and the kcat/Km is 29100 ± 3090 M⁻¹ s⁻¹. In addition, in experiment [1] (setting [5]), the kcat is 3.61 s⁻¹ and the kcat/Km was 29100 M⁻¹ s⁻¹. The kcat in experiment [1] (setting [4]) is 3.61 ± 0.31 s⁻¹.

For “KY(NO2)SENESRGK(Abz)IYYKKG (K[Tyr(3-NO2)]SENESRGK(2Abz)IYYKKG) [Compound 26]”, in experiment [1] (TS5-5), the “decrease in Km compared to the current substrate” value was around 2 fold and the “higher catalytic efficiency (kcat/Km) compared to the current substrate” value is on record as around 1.5 fold. Also, in experiment [1] (setting [3]), the Km worked out at 76.9 ± 6.4 µM; the kcat is 3.32 s⁻¹ and 3.32 ± 0.31 s⁻¹; the kcat/Km is 44400 M⁻¹ s⁻¹ and 44400 ± 6690 M⁻¹ s⁻¹. Moreover, in experiment [1] (setting [4]), the kcat worked out at 3.32 ± 0.31 s⁻¹. Besides, in experiment [2], the “lowest concentration of substrate detectibly cleaved by TS5-5 (ΔRFU ≥ 300)” value stood at 5 µM.
